Results on 24 molecules are retold here after paper PMC10720262 (Cell Reports, 2023).

Positions count from the first letter of the chain named.

For the assay, the target named is recombinant full-length PfCSP (Plasmodium falciparum circumsporozoite protein, strain NF54) (Plasmodium falciparum NF54, UniProt P19597).
recombinant full-length PfCSP (Plasmodium falciparum circumsporozoite protein, strain NF54), sequence (P19597 20-375): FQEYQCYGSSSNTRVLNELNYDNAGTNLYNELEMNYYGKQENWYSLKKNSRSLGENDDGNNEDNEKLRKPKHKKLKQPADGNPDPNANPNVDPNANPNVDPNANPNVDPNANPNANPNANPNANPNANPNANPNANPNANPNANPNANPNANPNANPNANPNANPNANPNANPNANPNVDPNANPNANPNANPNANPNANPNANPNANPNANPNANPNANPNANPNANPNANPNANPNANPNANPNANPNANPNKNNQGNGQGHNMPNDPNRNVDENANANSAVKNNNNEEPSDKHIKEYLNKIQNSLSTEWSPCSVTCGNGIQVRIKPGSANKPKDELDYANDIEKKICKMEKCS

B1: CL-510433 (antibody, V domains shown)
VH: QVQLVESGGGVVQPGRSLRLSCVASGFTFSSYGMHWVRQAPGKGLEWVAVIWYDGSNKYYADSVKGRFTVSRDNSKNTLYLQMNSLRAEDTAVYYCARVYYYGSGSYSPYYYALDVWGHGTTVTVSS
VL: EIVMTQSPATLSVSPGERATLSCRASQSISSNLAWYQQKPGQAPRLLIYGASIRATGIPARFSGSGSGTEFTLSISILQSEDFAIYYCQQYNNWWTFGQGTKVEIK
Consider B1, for which the binding result is on record as “binds”.

B2: CL-511073 (antibody, V domains shown)
VH: QVQLVESGGGVVQPGRSLRLSCAASGFSFSSHGMHWVRQAPGKGLEWVSIIWYDGSNKFYADSVKGRFTISRDNSKNTLYLQMNSLRAEDTAVYYCARDGYDVLTGHYNWFDPWGQGTLVTVSS
VL: B1 VL with I29V, N32K, I53T, E70D, S74T, I77S, I85V, Q99H
Turning to B2, the binding result is “binds”.

B3: CL-510458 (antibody, V domains shown)
VH: QVQLVESGGGVVQPGRSLRLSCAASGFTFNNYGMHWVRQAPGKGLEWVAVIWYDGSNKFHADSVKGRFTISRDNSKNTLYLQMNSLRAEDTALYYCARVYYYDSGSYLDYWGQGTLVTVSS
VL: DIQMTQSPSSVSASVGDRVTITCRASQGISRWLAWYQQKPGKAPKLLIYAASSLQSGVPSRFSGSGSGTDFTLTISSLQPEDFATYCCQQANNFPWTFGQGTKVEIK
As to B3, the binding result was “binds”.

B4: CL-510632 (antibody, V domains shown)
VH: B3 VH with N30S, H60Y, M83T, L93V, S106N, T118A
VL: B3 VL with S30N, R31N, W32C, S77N, N93S
Take B4: the binding result is “binds”.

B5: CL-510514 (antibody, V domains shown)
VH: QVQLVESGGGVVQPGRSLRLSCTTSGFTFSNFGMHWVRQAPGKGLEWVALIWYDGSNKYYADSVKGRFTISRDNSKNTLYLQMNGLRAEDTAVYYCARDGGYYYGSGGAFDIWGQGTMVTVSS
VL: not shown
With B5, the binding result is recorded as “binds”.

B6: CL-510418 (antibody, V domains shown)
VH: QVQLVESGGGVVQPGQSLRLSCEASGFTFSNYGMHWVRQAPVKGLEWVAIIWFDGSYKYYADSVKGRFTVSRDNSKNTLYLQMDSLRAEDTAVYYCARARKGQRSDYYGSETSYTFDNWGQGTLVTVSS
VL: DIQMTQSPSTLSASVGDRVTITCRASQSINSWLAWYQQKPGKAPKFLIYKASILESGIPSRFSGSGSGTEFTLTISSLQPDDFATYYCQQYNSYWTFGQGTKVEIK
For B6, the binding result is “binds”.

B7: CL-510453 (antibody, V domains shown)
VH: QVQLVESGGGVVQPGRSLRLSCAASGFTFSSYGMHWVRQAPDKGLEWVAIIWYDGSKKYYADSVKGRFTVSRDNSKNTLYLQMNSLRAEDTAVFYCARSFDYESGGFYSFDYWGQGTLVSVSS
VL: B6 VL with N30S, F46L, K50R, I53S, E55A, I58V, I105F
On to B7, for which the binding result is given as “binds”.

B8: CL-512011 (antibody, V domains shown)
VH: QVQLVESGGGVVQPGRSLRLSCVTSGFTFSSFGMHWVRQAPGKGLEWVALIWYDGSHKFYADSLTGRFTISRDNSKNTLYLQMNSLRVEDTAVYYCARAHAVTTANDKYGTDVWGQGTTVNVSP
VL: B6 VL with N30S, Q38H, K42N, F46L, I53N, I58V, Y87F, I105V
Consider B8, for which the binding result is on record as “binds”.

B9: CL-511862 (antibody, V domains shown)
VH: QVQLVESGGGVVQPGKSLRLSCAASGFSFSSSGMHWVRQAPDKGLEWVAIIWYDGSHKFYADSVKGRFTISRDNSDNTLFLQMDSLRAEDTAVYYCVRAYPTSYNGNYDKYGMDVWGQGTTVTVSS
VL: B6 VL with T22A, N30S, S31T, F46L, I53T, I58V, Y91F, N92T, S93F
Consider B9, for which the binding result was “binds”.

B10: CL-510640 (antibody, V domains shown)
VH: QVQLVESGGGVVQPGRSLRLSCAASGFTFSNYGMHWVRQAPVKGLEWVAIIWYDGSNKFYADSVRGRFIISRDNSKNTLYLQMNSLRAEDTAVYFCARAREGQNSDYYGSETSYTFDSWGLGTLVTVSS
VL: B6 VL with N30S, I53S, I58V, N92K
Consider B10, for which the binding result was “binds”.

B11: CL-511026 (antibody, V domains shown)
VH: QVQLVESGGGVVQPGRSLRLSCAASGFTFSNFGMHWVRQAPDRGLEWVSIIWYDGSNKFYADSVKGRFTISRDNSKNTLFLQMDSLRAEDTAVYYCAKAEMRTSDYYNYGMDVWGQGTTVTVSS
VL: B6 VL with N30S, F46L, I53S, I58V, G68A, S76R, N92Y, K106N
On to B11, for which the binding result was “binds”.

B12: CL-510700 (antibody, V domains shown)
VH: QVQLVESGGGVVQPGRSLRLSCAASGFTFSDFGMHWVRQTPGKGLEWVAIIWYDGSNKFYADSVKGRFTISRDNSKNTLFLQMNSLRAEDTAVYYCARSGVYYGSGSHFDYWGQGTLVTVSS
VL: B6 VL with N30S, Q38L, F46L, I53N, S56T, I58V, S60L, W95L
With B12, the binding result is reported as “binds”.

B13: CL-510487 (antibody, V domains shown)
VH: QVQLEESGGGVVQPGRSLRLSCTATGFTFSNYGMHWVRQAPGRGLEWVGVIWYDGSNKFYVDSVKGRFTISRDNSKNTLYLQMNSLRAEDTAVYYCARDGGYYGSGSYWWFDSWGQGTLVTVSS
VL: B6 VL with N30S, F46L, I53S, S56R, I58V, S93R, W95C, T96S, V103L
As to B13, the binding result is recorded as “binds”.

B14: CL-511296 (antibody, V domains shown)
VH: QVQLVASGGGVVQPGRSQRLSCAASGFTFSNYGMHWVRQSPGRGLEWVAIIWYDGSNKFYADSVKGRFTISRDNSRNTLFLQMNSLRAEDTAIYYCAKSEERTSDNYFKYGMDVWGQGTTVIVST
VL: B6 VL with N30S, F46L, I53N, I58V, T74S, S77N, Y87F, N92T
As for B14, the binding result was “binds”.

B15: CL-512023 (antibody, V domains shown)
VH: QVQLMESGGGVVQPGRSLRLSCEASGFTFSNSGMHWVRQAPGKGLEWVAIIWYDGSNRYYVDSVKGRFTISRDNSKNTLYLQMNSLRAEDTAVYYCARDGGNRYGYGWFDSWGQGTLVTVSS
VL: QSVLTQPPSVSGAPGQRVTISCTGSSSNIGAGYDVHWYQQLPGTAPKLLIYGNTNRPSGVPDRFSGSKSGTSASLAITGLQAEDEADYYCQSYDSSLGGSRRVFGGGTKLTVL
With B15, the binding result is reported as “binds”.

B16: CL-511905 (antibody, V domains shown)
VH: QVQLVESGGGVVQPGRSLRLSCAASGFTFSGSGMHWVRQAPGRGLEWVAIIWYDGSHKYYVDSVQGRFIISRDNSKNTLYLEMNSLRVEDTAVYYCVRAYPSGSSNDKYGMDVWGQGTTVTVSS
VL: not shown
Consider B16, for which the binding result is “binds”.

B17: CL-510469 (antibody, V domains shown)
VH: QVQLVESGGGVVQPGRSLRLSCAASGFTFSSYGMHWVRQAPGKGLEWVAVIWYDGSNQFYTDSVKGRFTISRDNSKNTLYLHMNSLRVEDTAIYYCARDGDYSSSAGDFDYWGQGTLVTVSS
VL: not shown
In the case of B17, the binding result is “binds”.

B18: CL-510484 (antibody, V domains shown)
VH: QVQLVESGGGVVQPGRSLRLSCAASGFTFSNYGMNWVRQAPGKGLEWMAVIWYDGSNKYYGDSVKGRFTISRDNSKNTLYLQMISLRAEDTAVYFCAKSGEFYGSGSHFDYWGQGTLVTVSS
VL: not shown
Take B18: the binding result is listed as “binds”.

B19: CL-511771 (antibody, V domains shown)
VH: QVQLVESGGGVVQPGRSLRLSCAASGFTFSNSGMHWVRQAPGKGLEWVAIIWYDGSNKYYAESMKGRFTISRDNSKNTLYLQMNSLRAEDTAVYYCARDGTTNAFDLWGQGTMVTVSP
VL: not shown
In the case of B19, the binding result is “binds”.

B20: CL-510427 (antibody, V domains shown)
VH: QVQLVESGGGVVQPGRSLRLSCAASGFTFSNYGMHWVRQAPGKGLEWVAVIWYDGSKEDYADSVKGRLTISRDNSKNTLYLQMNSLRAEDTAVYYCARDGDSRGWYAFDYWGQGTLVTVSS
VL: not shown
For B20, the binding result is recorded as “binds”.

B21: CL-512191 (antibody, V domains shown)
VH: QVQLVESGGGVVQPGRSLRLSCAASGFTFSNYAMHWVRQAPGKGLEWVAVIWYDGSNKYYADSVKGRFTISRDDSKNTLYLQMNSLRAEDTAVYYCARDKGYRYGFNWFDPWGQGTLVTVSS
VL: QSVLTQPPSVSGAPGQRVTISCTGSSSNIGAGYDVHWYQKLPGTAPKLLIFSNSNRPSGVPDRFSGSKSGTSASLAITGLQAEDEADYYCQSYDSSLSGSRVFGGGTKLTVL
Turning to B21, the binding result was “binds”.

B22: CL-510596 (antibody, V domains shown)
VH: B13 VH with R43K, G49A, F59Y
VL: not shown
Regarding B22, the binding result is “binds”.

B23: CL-510499 (antibody, V domains shown)
VH: QVQLVESGGGLVQPGRSLTLSCAASGFTFSNYGMHWVRQTPGKGLEWVALIRYDGSYKFYADSVKGRFTISRDNSKNTLYLQMNSLRAEDTAIYFCARDGDYSNSAGDFDYWGQGTLVTVSS
VL: EIVLTQSPGTLSLSPGERATLSCRASQSVSSTNLAWYQQKPGQAPRLLIYGVSSRATGIPDRFSGSGSGTDFTLTINRLEPEDFAVYYCQQHGRSFTFGPGTKVEIK
In the case of B23, the binding result is “binds”.

B24: CL-511776 (antibody, V domains shown)
VH: QVQLVESGGGVVQPGRSLTLSCAASGFTFSNFGMHWVRQAPGKGLEWMAVIWYDGNNEFYADSVKGRFTISRDNSKNMLYLHMNSLRAEDTAIYYCAREGDYSASGSHWLFDPWGQGTQVTVSS
VL: DIQMTQSPSTLSASVGDSITITCRASQSINIWLAWYQQKPGKAPNLLIYKASSLESGVPSRFSGSGSGTEFTLTINSLQPDDFATYYCQQYNNYVTFGGGTKVEIK
As for B24, the binding result is on record as “binds”.
